Values joined by “and” are separate entries in the source; they are usually repeats but may differ in a detail not shown here. Equal values may be shown once.
Columns and labels:
[1] = system: TNF production of pro-inflammatory macrophages; experiment: Inhibition of LPS induction of TNF production in in vitro matured pro-inflammatory macrophages; format: cell-based, human; conditions: compared with free dexamethasone / buffer, FIG. 30-31
Protocol: Monocytes were obtained from MNC after isolation using Dynal Monocyte Negative
Monocytes were resuspended in RMPI 1640 medium (Sigma-Aldrich, Brøndby, Denmark) containing 20% fetal calf serum (FCS) supplemented with 100 ng/ml M-CSF (GenScript Corporation, New Jersey, USA) and penicillin/streptomycin (pen/strep) for 7 days. The first 3 days in Tissue Culture Flasks at 37° C. and 5% CO2. The monocytes were then detached from the flask by flushing and scraping. The monocytes were divided into smaller portions and further grown for four days. 0.9×10^5 cells per well were grown in 96 well tissue culture plates for TNF CBA use.
Subsequently, the macrophages were activated in RMPI 1640 containing 5% FCS, 1 ug/ml lipopolysaccaride (LPS) (Sigma-Aldrich, Brøndby, Denmark) and 20 ng/ml INF-gamma (Genscript Corporation, New Jersey, USA) for 18 hours making them pro-inflammatory.
The pro-inflammatory macrophages were stimulated with RMPI160, 5% FCS, 1 ug/ml LPS and 20 ng/ml INF-gamma containing either dexamethasone, Ab-dexamethasone or no drug.
To detect the change in soluble TNF-alpha concentration we used the Cytometry Bead Array Kit (BD Biosciences, New Jersey, USA). The media from the in vitro stimulated macrophages (described earlier) grown in 96 well tissue culture plates were analyzed according to the manufacturer's protocol.

[2] = target: T1, CD163 on peripheral blood monocytes (Homo sapiens, UniProt Q86VB7); experiment: Quantitative flow cytometry of monocyte surface CD163 expression using different anti-CD163 mAb clones; format: cell-based
T1 construct: Freshly drawn peripheral whole blood samples or PBMC; endogenous in cells; host or cells: human peripheral blood monocytes, blood dendritic cells, monocyte-derived macrophages (healthy donors, buffy coats)
T1 sequence (Q86VB7 42-1156): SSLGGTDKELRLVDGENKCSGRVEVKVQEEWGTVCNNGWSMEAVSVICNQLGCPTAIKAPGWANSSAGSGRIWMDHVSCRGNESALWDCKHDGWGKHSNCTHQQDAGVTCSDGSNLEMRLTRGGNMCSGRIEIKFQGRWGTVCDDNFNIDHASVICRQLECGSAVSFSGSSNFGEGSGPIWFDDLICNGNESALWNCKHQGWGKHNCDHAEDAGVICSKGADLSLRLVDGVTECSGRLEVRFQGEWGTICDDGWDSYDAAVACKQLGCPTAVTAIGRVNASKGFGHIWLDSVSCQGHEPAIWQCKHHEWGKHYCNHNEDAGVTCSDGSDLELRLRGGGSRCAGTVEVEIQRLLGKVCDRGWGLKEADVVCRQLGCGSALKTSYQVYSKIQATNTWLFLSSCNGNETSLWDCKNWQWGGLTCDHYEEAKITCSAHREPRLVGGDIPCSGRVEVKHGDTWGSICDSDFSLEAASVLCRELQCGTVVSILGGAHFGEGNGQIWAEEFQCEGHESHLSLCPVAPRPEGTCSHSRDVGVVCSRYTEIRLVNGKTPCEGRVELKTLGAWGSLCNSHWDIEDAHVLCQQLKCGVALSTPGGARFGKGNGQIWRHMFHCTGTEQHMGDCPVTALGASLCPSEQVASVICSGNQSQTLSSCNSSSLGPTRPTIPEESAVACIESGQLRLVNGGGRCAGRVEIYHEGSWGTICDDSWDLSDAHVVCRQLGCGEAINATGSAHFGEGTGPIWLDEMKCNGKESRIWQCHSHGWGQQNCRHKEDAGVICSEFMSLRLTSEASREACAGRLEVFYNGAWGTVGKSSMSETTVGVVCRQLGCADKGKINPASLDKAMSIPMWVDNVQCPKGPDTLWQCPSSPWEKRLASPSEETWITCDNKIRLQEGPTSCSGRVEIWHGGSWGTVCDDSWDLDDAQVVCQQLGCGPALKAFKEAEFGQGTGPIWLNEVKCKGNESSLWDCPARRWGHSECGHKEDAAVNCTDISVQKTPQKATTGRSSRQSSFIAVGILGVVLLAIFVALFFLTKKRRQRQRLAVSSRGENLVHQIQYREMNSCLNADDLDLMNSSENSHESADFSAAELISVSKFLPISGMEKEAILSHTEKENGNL
Protocol: EDTA, citrate, and heparin stabilized peripheral blood samples were obtained by standard venipuncture from healthy donors in Venoject® vacutainers (Terumo Europe NV, Leuven, Belgium). Peripheral blood mononuclear cells (PBMC) were isolated from leukocyte-rich buffy coats by gradient separation centrifugation using Accuspin System Histopaque®—1077 (Sigma-Aldrich Denmark A/S, Broendby, Denmark). Buffy coats were prepared from units of whole blood (approximately 472 ml) anti-coagulated with CPD-A (Baxter, Munich, Germany) donated by healthy volunteers. Approval for the study was obtained from the regional ethical committee (j.nr. 20040068).
Freshly drawn peripheral whole blood samples or PBMC (approx. 3×10^6 cells) were stained with isotype-matched control antibody or a relevant antibody for one hour at 4° C. in the dark. When staining whole blood, erythrocytes were lysed for 15 min with 4° C. cold solution of ammonium chloride. When indirect immunofluoresence staining was required, cells were initially incubated with unconjugated primary CD163 antibody for one hour at 4° C., washed three times with D-PBS, pH 7.4, followed by incubation with goat anti-mouse-conjugated Alexa-Fluor® 488 (1:200 dilution; Molecular Probes, Invitrogen, Carlsbad, Calif., USA) for one hour at 4° C. in the dark. The stained cells were washed twice three D-PBS, pH 7.4, re-suspended in 400 μl FACSflow (Becton Dickinson, San Jose, Calif., USA), and kept on ice until analysis. All samples were analyzed using a FACSCalibur flow cytometer and compensated for spectral overlap using FlowJo for Macintosh software version 8.3 (TreeStar, San Carlos, Calif.). For CD163 density quantitation, flow cytometric estimation of antibodies bound/cell (ABCs) was performed using Quantibrite PE beads (Becton Dickinson, San Jose, Calif., USA) as recommended by the manufacturer. After the cells were stained, as detailed, a set of 4 pre-calibrated fluorescently labeled beads was used for standardization before the samples were acquired. The Quantibrite PE beads were run at the same instrument settings as the assay, and the linear regression obtained using the Quantibrite PE beads was used to convert the FL2 linear fluorescence staining of cell population into the number of (CD163) PE molecules bound per cell (ABC).

[3] = PBMC isolated by density gradient centrifugation
[4] = Table 2, second column pair, head prints CITRATE
[5] = anticoagulant CITRATE, whole blood (Table 1, FIG. 2-3)
[6] = anticoagulant EDTA, whole blood (Table 1, FIG. 2-3)
[7] = anticoagulant HEPARIN, whole blood (Table 1, FIG. 2-3)
[8] = freshly drawn EDTA stabilized whole blood, FIG. 1

B1: MAC2-158: anti-human CD163 murine mAb, binds SRCR domain 1, IQ Products; VH SEQ ID NO: 1, VL SEQ ID NO: 2 (antibody, V domains shown)
VH: DVQLQESGPGLVKPSQSLSLTCTVTGYSITSDYAWNWIRQFPGNKLEWMGYITYSGITNYNPSLKSQISITRDTSKNQFFLQLNSVTTEDTATYYCVSGTYYFDYWGQGTTLTVSS
VL: SVVMTQTPKSLLISIGDRVTITCKASQSVSSDVAWFQQKPGQSPKPLIYYASNRYTGVPDRFTGSGYGTDFTFTISSVQAEDLAVYFCGQDYTSPRTFGGGTKLEIKRA
modifications: Mac2-158 VH; Mac2-158 VL
**Q.** B1 was tested. Which “effect on TNF production of macrophages” value [1] did it give?
**A.** The value was “no effect different from buffer”.

**Q.** What about the “density of CD163 receptors per monocyte” value [2, 3] of the same molecule?
**A.** The value was 11,417.

**Q.** And the “fraction of CD14+ monocytes stained for CD163” value [2, 3]?
**A.** Its value is 81.10%.

**Q.** And the “% CD163+ monocytes” value ([2]; Table 2, first column pair, head prints EDTA)?
**A.** The value was 84.48%.

**Q.** And the “% CD163+ monocytes” value [2, 4]?
**A.** Its value is 87.23%.

**Q.** And the CD163 density on monocytes [2, 4]?
**A.** The CD163 density on monocytes was 17700 receptors/monocyte.

**Q.** And the “% CD163+ monocytes” value ([2]; Table 2, third column pair, head prints HEPARIN)?
**A.** The value was 83.97%.

**Q.** What about the “% CD163+ monocytes” value [2, 5] of the same molecule?
**A.** The value was 83.97% and 81.97%.

**Q.** And the “CD163 density on monocytes” value [2, 5]?
**A.** Its value is 17.726.

**Q.** What about the “% CD163+ monocytes” value [2, 6] of the same molecule?
**A.** The value was 87.23% and 82.23%.

**Q.** And the “CD163 density on monocytes” value [2, 6]?
**A.** The value was 17.725.

**Q.** What about the “% CD163+ monocytes” value [2, 7] of the same molecule?
**A.** The value was 84.43%.

**Q.** What about the CD163 density monocytes [2, 7] of the same molecule?
**A.** Its CD163 density monocytes is 28.029.

**Q.** What about the “density of CD163 receptors per monocyte” value [2, 8] of the same molecule?
**A.** The value was 17,725.

**Q.** And the “fraction of peripheral blood monocytes (CD14+) recognized” value [2, 8]?
**A.** The value was 84.06%.

**Q.** What about the “proportion of circulating CD163 expressing monocytes identified” value ([2]; summary statement) of the same molecule?
**A.** The value was greater than 80%.

— patent US20170119790A1, “Agents, Uses and Methods” (CYTOGUIDE A/S, priority 2009, published 2017)
